Assay results taken from patent publication US20250026797A1 (GOVERNMENT OF THE UNITED STATES OF AMERICA AS REPRESENTED …, published 2025).
Positions count from the first letter of the chain named. Numbers in names are those of the source. *: point of attachment. Biotin = O=C1N[C@H]2[C@H](CS[C@H]2CCCCC(=O)*)N1

T1: wild-type human GID4 fragment (residues 116-300), purified with N-terminal His-tag (human, UniProt Q8IVV7 116-300)
T1 construct: Expressed in E. coli BL21(DE3), nickel-column purified; also called wild-type GID4; native GID4; not shown: N-terminal six-histidine tag and TEV protease recognition site from the pET21(+) construct
T1 sequence: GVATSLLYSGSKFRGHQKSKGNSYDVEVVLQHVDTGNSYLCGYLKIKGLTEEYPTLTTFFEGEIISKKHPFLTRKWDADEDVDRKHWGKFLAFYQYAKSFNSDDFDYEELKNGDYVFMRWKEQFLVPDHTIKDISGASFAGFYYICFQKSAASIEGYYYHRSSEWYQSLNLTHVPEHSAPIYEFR

B1: NH2-PGLVKSK(biotin)-COOH peptide (peptide)
peptide: H-PGLVKSK(Biotin)-OH
SMILES: CC(C)C[C@H](NC(=O)CNC(=O)[C@@H]1CCCN1)C(=O)N[C@H](C(=O)N[C@@H](CCCCN)C(=O)N[C@@H](CO)C(=O)N[C@@H](CCCCNC(=O)CCCC[C@@H]1SC[C@@H]2NC(=O)N[C@@H]21)C(=O)O)C(C)C
notes: Immobilised on streptavidin biosensors in BLI; in solution in the yeast display sorts; also called Nt-Pro peptide; target peptide
B2: yeast-surface displayed GID4 A252V variant (residues 116-300, HA-tag, (GGGGS)x3 linker, c-Myc-tag) (designed binder)
chain: YPYDVPDYAGGGGSGGGGSGGGGSGVATSLLYSGSKFRGHQKSKGNSYDVEVVLQHVDTGNSYLCGYLKIKGLTEEYPTLTTFFEGEIISKKHPFLTRKWDADEDVDRKHWGKFLAFYQYAKSFNSDDFDYEELKNGDYVFMRWKEQFLVPDHTIKDISGVSFAGFYYICFQKSAASIEGYYYHRSSEWYQSLNLTHVPEHSAPIYEFREQKLISEEDL
notes: also called A252V (Sort 3ii); not shown: yeast-surface display fusion partner encoded by the pCTCON2 plasmid
B3: yeast-surface displayed GID4 S283F variant (residues 116-300, HA-tag, (GGGGS)x3 linker, c-Myc-tag) (designed binder)
chain: B2 chain with V161A, S192F
notes: also called S283F (Sort 3i); not shown: yeast-surface display fusion partner encoded by the pCTCON2 plasmid
B4: yeast-surface displayed GID4 S253T variant (residues 116-300, HA-tag, (GGGGS)x3 linker, c-Myc-tag) (designed binder)
chain: B2 chain with V161A, S162T
notes: also called S253T (Sort 3i); not shown: yeast-surface display fusion partner encoded by the pCTCON2 plasmid

Legend:
[1] = target: T1, wild-type human GID4 fragment (residues …); test: BLI, biotinylated peptide on streptavidin biosensor, 10 µmol/L protein
Method: High-throughput kinetic measurements were taken using Octet Red96e system with Octet Streptavidin (SA) Biosensors in 96-well format. The highest concentration of protein was prepared by mixing 25% of the total volume with 0.4% BSA in dialysis buffer (1×PBS) and completing subsequent dilutions with 0.1% BSA in dialysis buffer. The SA biosensors were hydrated for 10 min in the dialysis buffer with 0.1% BSA then loaded with NH₂-XXXVKSK(biotin)-COOH (where X are residues specified in the experiment and figures) by moving the sensors into wells with 10 μmol/L of the biotinylated peptide and incubating for 2 min. Unbound peptide was removed by incubating in the dialysis buffer with 0.1% BSA for 2 min in the next wells. The association of GID4 wild-type and variants were then measured by incubating the biosensors in wells with the proteins for 10 min and then dissociation measured by moving the sensors into new wells with dialysis buffer with 0.1% BSA for another 10 min. All wells contained 200 μL of specified solution. The measurements were analyzed with instrument software Data Analysis HT (Version 12).
The association and dissociation of the GID4 wild-type and the six variants to the PGLVKSK(biotin) peptide were evaluated using BLI. BLI is an optical technique that can measure interaction between protein in solution ad peptide immobilized on the biosensor tip. […] The S283F variant has an apparent faster dissociation rate compared to the other singe mutation variants. The apparent faster dissociation rate due to S283F mutation is also present in A252V-S283F mutant, when compared to the A252V-S253T mutant. […] The increase in the BLI response and shift in dissociation rate can be beneficial as an Nt-Pro recognizing protein; differences in off-rate can be used as method to distinguish different Nt-amino acids.

[2] = target: B1; test: yeast-surface display, FACS with biotinylated peptide and streptavidin-R-phycoerythrin
Method: After expression, aliquots of cells were pelleted at 3000 RPM for 3 min and suspended to 1 mL for sort samples and 100 μL for control samples such that OD₆₀₀=1 in 0.1% BSA in 1× phosphate-buffered saline (PBS, 137 mmol/L NaCl, 2.7 mmol/L KCl, 10 mmol/L sodium phosphate dibasic, 1.8 mmol/L potassium phosphate monobasic, pH 7.4). The samples were prepared with or without 10 μmol/L of NH₂-PGLVKSK(biotin)-COOH peptide, which has biotin attached to the C-terminal lysine residue. Cells were incubated, while rotating with mixing for 90 min at room temperature. Cells were then pelleted at 3600 RPM for 3 min at 4° C. and suspended in 1 mL of 0.1% BSA in PBS with 10 μg/mL of α-c-Myc (9E1) antibody conjugated to Alexa Fluor® 647 and 25 μg/mL of streptavidin conjugated to R-phycoerythrin (FIG. 1c). For control samples, no or single fluorescent probe was included in 100 μL total volume. After incubation in the dark for 40 min on ice, the cells were washed with 0.1% BSA in PBS and kept on ice until running on cell sorter.
Cells were sorted by fluorescence-activated cell sorting (FACS) on Sony SH800 cell sorter with 100 μm chip. Control samples were used to set up compensation and gate for single cells that show binding to both fluorescent probes (Q2 in FIG. 1d). A total of 70345 cells were sorted into two 5 mL FACS tubes with 1 mL of SD-CAA in each and then combined in 14 mL Falcon cell culture tube for growth with additional 2 mL of SD-CAA media and 10 μg/mL of Carb. After ˜36 hrs of growth at 30° C. and 300 RPM, cells were subcultured to expression media and the selecting and sorting repeated, with modification of using 1 μmol/L of the peptide and collecting 10000 cells from gated areas. A third round of expression, selection, and sorting was done using 0.5 μmol/L of the biotinylated peptide. In each round of cell sorting and amplification, ˜10⁷ cells were pelleted and frozen for plasmid extraction.

binding result [1]	binding result [2]	Binder
binds		B1
	binds	B2
	binds	B3
	binds	B4
